Measurements reported in US20180186877A1 (NATIONAL CEREBRAL AND CARDIOVASCULAR CENTER, published 2018).

Target: Epitope-tagged recombinant LOX-1 protein (NM002543, aa 61-273, 6xHis); pcDNA4, Igk secretion signal; secreted … (UniProt P78380 61-273)
Experiment: SPR (Biacore), FVa immobilised on the chip, LOX-1 0-400 nM flowed; equilibrium (Req) analysis
Description: Note that the Igκ secretion signal was obtained by pSecTag/FRT/V5-HisTOPO (Invitrogen). […] The surface plasmon resonance was performed using Biacore (manufactured by GE Healthcare, Inc.).

B1: Human Factor Va (HCVA-0110, Haematologic Technologies Inc.) (other)
H chain: AQLRQFYVAAQGISWSYRPEPTNSSLNLSVTSFKKIVYREYEPYFKKEKPQSTISGLLGPTLYAEVGDIIKVHFKNKADKPLSIHPQGIRYSKLSEGASYLDHTFPAEKMDDAVAPGREYTYEWSISEDSGPTHDDPPCLTHIYYSHENLIEDFNSGLIGPLLICKKGTLTEGGTQKTFDKQIVLLFAVFDESKSWSQSSSLMYTVNGYVNGTMPDITVCAHDHISWHLLGMSSGPELFSIHFNGQVLEQNHHKVSAITLVSATSTTANMTVGPEGKWIISSLTPKHLQAGMQAYIDIKNCPKKTRNLKKITREQRRHMKRWEYFIAAEEVIWDYAPVIPANMDKKYRSQHLDNFSNQIGKHYKKVMYTQYEDESFTKHTVNPNMKEDGILGPIIRAQVRDTLKIVFKNMASRPYSIYPHGVTFSPYEDEVNSSFTSGRNNTMIRAVQPGETYTYKWNILEFDEPTENDAQCLTRPYYSDVDIMRDIASGLIGLLLICKSRSLDRRGIQRAADIEQQAVFAVFDENKSWYLEDNINKFCENPDEVKRDDPKFYESNIMSTINGYVPESITTLGFCFDDTVQWHFCSVGTQNEILTIHFTGHSFIYGKRHEDTLTLFPMRGESVTVTMDNVGTWMLTSMNSSPRSKKLRLKFRDVKCIPDDDEDSYEIFEPPESTVMATRKMHDRLEPEDEESDADYDYQNRLAAALGIR
L chain: SNNGNRRNYYIAAEEISWDYSEFVQRETDIEDSDDIPEDTTYKKVVFRKYLDSTFTKRDPRGEYEEHLGILGPIIRAEVDDVIQVRFKNLASRPYSLHAHGLSYEKSSEGKTYEDDSPEWFKEDNAVQPNSSYTYVWHATERSGPESPGSACRAWAYYSAVNPEKDIHSGLIGPLLICQKGILHKDSNMPMDMREFVLLFMTFDEKKSWYYEKKSRSSWRLTSSEMKKSHEFHAINGMIYSLPGLKMYEQEWVRLHLLNIGGSQDIHVVHFHGQTLLENGNKQHQLGVWPLLPGSFKTLEMKASKPGWWLLNTEVGENQRAGMQTPFLIMDRDCRMPMGLSTGIISDSQIKASEFLGYWEPRLARLNNGGSYNAWSVEKLAAEFASKPWIQVDMQKEVIITGIQTQGAKHYLKSCYTTEFYVAYSSNQINWQIFKGNSTRNVMYFNGNSDASTIKENQFDPPIVARYIRISPTRAYNRPTLRLELQGCEVNGCSTPLGMENGKIENKQITASSFKKSWWGDYWEPFRARLNAQGRVNAWQAKANNNKQWLEIDLLKIKKITAIITQGCKSLSSEMYVKSYTIHYSEQGVEWKPYRLKSSMVDKIFEGNTNTKGHVKNFFNPPIISRFIRVIPKTWNQSIALRLELFGCDIY
modifications: Two-chain, plasma-derived glycoprotein. The H and L chains are held together non-covalently through Ca2+. Glycosylation and tyrosine sulfation are not carried by the letters.
notes: also called FVa
For B1, the Kd was 22.1 nM.
